According to patent US20080020978A1 (Amgen, published 2008):
Bridge positions count the residues as written; N and C are the ends. Square brackets hold non-standard residues; d marks the D form. 1Nal = N[C@@H](Cc1cccc2ccccc12)C(=O)O; hArg = N=C(N)NCCCC[C@H](N)C(=O)O; hCit = NC(=O)NCCCC[C@H](N)C(=O)O; Cit = NC(=O)NCCC[C@H](N)C(=O)O; Aib = CC(C)(N)C(=O)O

B1: SEQ ID NO 897 (peptide)
peptide: Ac-[1Nal]VEH[hArg]LKGLLS[Cit]SGGVVRKNFVPTDVGPFAF-NH2
modifications: lactam 3-7
SMILES: CC(=O)N[C@@H](Cc1cccc2ccccc12)C(=O)N[C@H](C(=O)N[C@H]1CCC(=O)NCCCC[C@@H](C(=O)NCC(=O)N[C@@H](CC(C)C)C(=O)N[C@@H](CC(C)C)C(=O)N[C@@H](CO)C(=O)N[C@@H](CCCNC(N)=O)C(=O)N[C@@H](CO)C(=O)NCC(=O)NCC(=O)N[C@H](C(=O)N[C@H](C(=O)N[C@@H](CCCNC(=N)N)C(=O)N[C@@H](CCCCN)C(=O)N[C@@H](CC(N)=O)C(=O)N[C@@H](Cc2ccccc2)C(=O)N[C@H](C(=O)N2CCC[C@H]2C(=O)N[C@H](C(=O)N[C@@H](CC(=O)O)C(=O)N[C@H](C(=O)NCC(=O)N2CCC[C@H]2C(=O)N[C@@H](Cc2ccccc2)C(=O)N[C@@H](C)C(=O)N[C@@H](Cc2ccccc2)C(N)=O)C(C)C)[C@@H](C)O)C(C)C)C(C)C)C(C)C)NC(=O)[C@H](CC(C)C)NC(=O)[C@H](CCCCNC(=N)N)NC(=O)[C@H](Cc2c[nH]cn2)NC1=O)C(C)C
B2: SEQ ID NO 893 (peptide)
peptide: Ac-WVEHRLKGLLS[Cit]SGGVVRKNFVPTDVGPFAF-NH2
modifications: lactam 3-7
SMILES: CC(=O)N[C@@H](Cc1c[nH]c2ccccc12)C(=O)N[C@H](C(=O)N[C@H]1CCC(=O)NCCCC[C@@H](C(=O)NCC(=O)N[C@@H](CC(C)C)C(=O)N[C@@H](CC(C)C)C(=O)N[C@@H](CO)C(=O)N[C@@H](CCCNC(N)=O)C(=O)N[C@@H](CO)C(=O)NCC(=O)NCC(=O)N[C@H](C(=O)N[C@H](C(=O)N[C@@H](CCCNC(=N)N)C(=O)N[C@@H](CCCCN)C(=O)N[C@@H](CC(N)=O)C(=O)N[C@@H](Cc2ccccc2)C(=O)N[C@H](C(=O)N2CCC[C@H]2C(=O)N[C@H](C(=O)N[C@@H](CC(=O)O)C(=O)N[C@H](C(=O)NCC(=O)N2CCC[C@H]2C(=O)N[C@@H](Cc2ccccc2)C(=O)N[C@@H](C)C(=O)N[C@@H](Cc2ccccc2)C(N)=O)C(C)C)[C@@H](C)O)C(C)C)C(C)C)C(C)C)NC(=O)[C@H](CC(C)C)NC(=O)[C@H](CCCNC(=N)N)NC(=O)[C@H](Cc2c[nH]cn2)NC1=O)C(C)C
B3: SEQ ID NO 898 (peptide)
peptide: Ac-[Aib]WVEH[hArg]LKGLLS[Cit]SGGVVRKNFVPTDVGPFAF-NH2
modifications: lactam 4-8
SMILES: CC(=O)NC(C)(C)C(=O)N[C@@H](Cc1c[nH]c2ccccc12)C(=O)N[C@H](C(=O)N[C@H]1CCC(=O)NCCCC[C@@H](C(=O)NCC(=O)N[C@@H](CC(C)C)C(=O)N[C@@H](CC(C)C)C(=O)N[C@@H](CO)C(=O)N[C@@H](CCCNC(N)=O)C(=O)N[C@@H](CO)C(=O)NCC(=O)NCC(=O)N[C@H](C(=O)N[C@H](C(=O)N[C@@H](CCCNC(=N)N)C(=O)N[C@@H](CCCCN)C(=O)N[C@@H](CC(N)=O)C(=O)N[C@@H](Cc2ccccc2)C(=O)N[C@H](C(=O)N2CCC[C@H]2C(=O)N[C@H](C(=O)N[C@@H](CC(=O)O)C(=O)N[C@H](C(=O)NCC(=O)N2CCC[C@H]2C(=O)N[C@@H](Cc2ccccc2)C(=O)N[C@@H](C)C(=O)N[C@@H](Cc2ccccc2)C(N)=O)C(C)C)[C@@H](C)O)C(C)C)C(C)C)C(C)C)NC(=O)[C@H](CC(C)C)NC(=O)[C@H](CCCCNC(=N)N)NC(=O)[C@H](Cc2c[nH]cn2)NC1=O)C(C)C
B4: SEQ ID NO 889 (peptide)
peptide: Ac-WVTHRLRGELSRKGGVVRKNFVPTDVGPFAF-NH2
modifications: lactam 9-13
SMILES: CC(=O)N[C@@H](Cc1c[nH]c2ccccc12)C(=O)N[C@H](C(=O)N[C@H](C(=O)N[C@@H](Cc1c[nH]cn1)C(=O)N[C@@H](CCCNC(=N)N)C(=O)N[C@@H](CC(C)C)C(=O)N[C@@H](CCCNC(=N)N)C(=O)NCC(=O)N[C@H]1CCC(=O)NCCCC[C@@H](C(=O)NCC(=O)NCC(=O)N[C@H](C(=O)N[C@H](C(=O)N[C@@H](CCCNC(=N)N)C(=O)N[C@@H](CCCCN)C(=O)N[C@@H](CC(N)=O)C(=O)N[C@@H](Cc2ccccc2)C(=O)N[C@H](C(=O)N2CCC[C@H]2C(=O)N[C@H](C(=O)N[C@@H](CC(=O)O)C(=O)N[C@H](C(=O)NCC(=O)N2CCC[C@H]2C(=O)N[C@@H](Cc2ccccc2)C(=O)N[C@@H](C)C(=O)N[C@@H](Cc2ccccc2)C(N)=O)C(C)C)[C@@H](C)O)C(C)C)C(C)C)C(C)C)NC(=O)[C@H](CCCNC(=N)N)NC(=O)[C@H](CO)NC(=O)[C@H](CC(C)C)NC1=O)[C@@H](C)O)C(C)C
B5: PEG-peptide of SEQ ID NO 886 (peptide)
peptide: WVTHXLAGLLSXSGGVVXKNFVPTDVGPFAF
modifications: Ac-WVTH[hCit]LAGLLS[hCit]SGGVV[hArg]KNFVPTDVGPFAF-NH2; PEG-conjugated (Table 2C: in most cases at Lys^25)
B6: PEG-peptide of SEQ ID NO 887 (peptide)
peptide: B5 peptide
modifications: Ac-WVTH[hArg]LAGLLS[hCit]SGGVV[hArg]KNFVPTDVGPFAF-NH2; PEG-conjugated (Table 2C: in most cases at Lys^25)
B7: SEQ ID NO 890 (peptide)
peptide: Ac-WVEHRLEGLLKRSGGVVRKNFVPTDVGPFAF-NH2
modifications: lactam 7-11
SMILES: CC(=O)N[C@@H](Cc1c[nH]c2ccccc12)C(=O)N[C@H](C(=O)N[C@@H](CCC(=O)O)C(=O)N[C@@H](Cc1c[nH]cn1)C(=O)N[C@@H](CCCNC(=N)N)C(=O)N[C@@H](CC(C)C)C(=O)N[C@H]1CCC(=O)NCCCC[C@@H](C(=O)N[C@@H](CCCNC(=N)N)C(=O)N[C@@H](CO)C(=O)NCC(=O)NCC(=O)N[C@H](C(=O)N[C@H](C(=O)N[C@@H](CCCNC(=N)N)C(=O)N[C@@H](CCCCN)C(=O)N[C@@H](CC(N)=O)C(=O)N[C@@H](Cc2ccccc2)C(=O)N[C@H](C(=O)N2CCC[C@H]2C(=O)N[C@H](C(=O)N[C@@H](CC(=O)O)C(=O)N[C@H](C(=O)NCC(=O)N2CCC[C@H]2C(=O)N[C@@H](Cc2ccccc2)C(=O)N[C@@H](C)C(=O)N[C@@H](Cc2ccccc2)C(N)=O)C(C)C)[C@@H](C)O)C(C)C)C(C)C)C(C)C)NC(=O)[C@H](CC(C)C)NC(=O)[C@H](CC(C)C)NC(=O)CNC1=O)C(C)C
B8: SEQ ID NO 895 (peptide)
peptide: Ac-WVEHRLKGLLS[Cit]SGGVVRKNFVPTDVGPFAF-NH2
modifications: lactam 3-7
SMILES: CC(=O)N[C@@H](Cc1c[nH]c2ccccc12)C(=O)N[C@H](C(=O)N[C@H]1CCC(=O)NCCCC[C@@H](C(=O)NCC(=O)N[C@@H](CC(C)C)C(=O)N[C@@H](CC(C)C)C(=O)N[C@@H](CO)C(=O)N[C@@H](CCCNC(N)=O)C(=O)N[C@@H](CO)C(=O)NCC(=O)NCC(=O)N[C@H](C(=O)N[C@H](C(=O)N[C@@H](CCCNC(=N)N)C(=O)N[C@@H](CCCCN)C(=O)N[C@@H](CC(N)=O)C(=O)N[C@@H](Cc2ccccc2)C(=O)N[C@H](C(=O)N2CCC[C@H]2C(=O)N[C@H](C(=O)N[C@@H](CC(=O)O)C(=O)N[C@H](C(=O)NCC(=O)N2CCC[C@H]2C(=O)N[C@@H](Cc2ccccc2)C(=O)N[C@@H](C)C(=O)N[C@@H](Cc2ccccc2)C(N)=O)C(C)C)[C@@H](C)O)C(C)C)C(C)C)C(C)C)NC(=O)[C@H](CC(C)C)NC(=O)[C@H](CCCNC(=N)N)NC(=O)[C@H](Cc2c[nH]cn2)NC1=O)C(C)C
B9: SEQ ID NO 896 (peptide)
peptide: Ac-WVEHRLKGLLS[Cit]SGGVVRKNFVPTDVGPFAF-NH2
modifications: lactam 3-7
SMILES: CC(=O)N[C@@H](Cc1c[nH]c2ccccc12)C(=O)N[C@H](C(=O)N[C@H]1CCC(=O)NCCCC[C@@H](C(=O)NCC(=O)N[C@@H](CC(C)C)C(=O)N[C@@H](CC(C)C)C(=O)N[C@@H](CO)C(=O)N[C@@H](CCCNC(N)=O)C(=O)N[C@@H](CO)C(=O)NCC(=O)NCC(=O)N[C@H](C(=O)N[C@H](C(=O)N[C@@H](CCCNC(=N)N)C(=O)N[C@@H](CCCCN)C(=O)N[C@@H](CC(N)=O)C(=O)N[C@@H](Cc2ccccc2)C(=O)N[C@H](C(=O)N2CCC[C@H]2C(=O)N[C@H](C(=O)N[C@@H](CC(=O)O)C(=O)N[C@H](C(=O)NCC(=O)N2CCC[C@H]2C(=O)N[C@@H](Cc2ccccc2)C(=O)N[C@@H](C)C(=O)N[C@@H](Cc2ccccc2)C(N)=O)C(C)C)[C@@H](C)O)C(C)C)C(C)C)C(C)C)NC(=O)[C@H](CC(C)C)NC(=O)[C@H](CCCNC(=N)N)NC(=O)[C@H](Cc2c[nH]cn2)NC1=O)C(C)C

Target: CGRP1 receptor (CRLR/RAMP1 complex) of human neuroblastoma SK-N-MC cells (human, UniProt Q16602 23-461; O60894 27-148)
Test: cell-based or functional assay

Chain of CGRP1 receptor (CRLR/RAMP1 complex) of human neuroblastoma SK-N-MC cells (Q16602 23-461, chain 1 of 2): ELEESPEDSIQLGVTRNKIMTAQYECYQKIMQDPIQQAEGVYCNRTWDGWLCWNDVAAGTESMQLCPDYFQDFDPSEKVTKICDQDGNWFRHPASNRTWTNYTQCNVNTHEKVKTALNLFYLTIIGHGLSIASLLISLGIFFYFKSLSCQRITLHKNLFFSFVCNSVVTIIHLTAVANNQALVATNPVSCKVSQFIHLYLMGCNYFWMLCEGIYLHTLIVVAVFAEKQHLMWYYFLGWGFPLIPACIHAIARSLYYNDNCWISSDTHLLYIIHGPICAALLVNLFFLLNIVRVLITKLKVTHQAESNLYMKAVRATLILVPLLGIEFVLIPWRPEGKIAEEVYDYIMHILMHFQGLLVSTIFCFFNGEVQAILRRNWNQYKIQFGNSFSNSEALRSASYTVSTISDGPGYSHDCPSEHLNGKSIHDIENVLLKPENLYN
Chain of CGRP1 receptor (CRLR/RAMP1 complex) of human neuroblastoma SK-N-MC cells (O60894 27-148, chain 2 of 2): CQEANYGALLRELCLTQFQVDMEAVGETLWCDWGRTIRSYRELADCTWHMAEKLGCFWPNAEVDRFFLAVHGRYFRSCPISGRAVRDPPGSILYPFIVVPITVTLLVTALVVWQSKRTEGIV

Going from Ac-WVEH[hArg]LKGLLS[Cit]SGGVVRKNFVPTDVGPFAF-NH2 (lactam 3-7) [SEQ ID NO 894] to B1, the “Peptide IC50” value rises from 1.26 nM to 2.25 nM (1.8-fold).

Going from B2 to B3, the “Peptide IC50” value rises from 1.64 nM to 3.18 nM (1.9-fold).

B4 and Ac-WVEHRLKGELSRKGGVVRKNFVPTDVGPFAF-NH2 (lactam 9-13, 3-7) [SEQ ID NO 892] are within 1.5-fold of each other in “Peptide IC50” value: 0.94 nM for the first, 1.11 nM for the second.

First: WVTHXLAGLLSXSGGVVXKNFVPTDVGPFAF (Ac-WVTH[hArg]LAGLLS[hCit]SGGVV[hArg]KNFVPTDVGPFAF-NH2) [SEQ ID NO 887]
Second: Ac-WVEHRLKGLLSRSGGVVRKNFVPTDVGPFAF-NH2 (lactam 3-7) [SEQ ID NO 891]
The “Peptide IC50” value of the first is 2.1-fold higher: 3.14 nM for the first, 1.47 nM for the second.

First: B7
Second: B8
The “Peptide IC50” value of the first is 1.6-fold lower: 1.7 nM for the first, 2.8 nM for the second.

For B9, the “Peptide IC50” value was 1.61 nM.

Going from Ac-WVEH[hArg]LKGLLS[Cit]SGGVVRKNFVPTDVGPFAF-NH2 (lactam 3-7; also: PEG-conjugated, in most cases at Lys25) [PEG-peptide of SEQ ID NO 894] to B5, the “PEG-peptide IC50” value rises from 3.54 nM to 22.7 nM (6.4-fold).

First: B6
Second: Ac-[1Nal]VEH[hArg]LKGLLS[Cit]SGGVVRKNFVPTDVGPFAF-NH2 (lactam 3-7; also: PEG-conjugated, in most cases at Lys25) [PEG-peptide of SEQ ID NO 897]
The “PEG-peptide IC50” value of the first is 1.5-fold higher: 6.3 nM for the first, 4.1 nM for the second.

Ac-WVTH[hCit]LAGLLS[hArg]SGGVV[hArg]KNFVPTDVGPFAF-NH2 (also: PEG-conjugated, in most cases at Lys25) [PEG-peptide of SEQ ID NO 888] and Ac-WVEHRLEGLLKRSGGVVRKNFVPTDVGPFAF-NH2 (lactam 7-11; also: PEG-conjugated, in most cases at Lys25) [PEG-peptide of SEQ ID NO 890] are within 1.5-fold of each other in “PEG-peptide IC50” value: 2.11 nM for the first, 2.86 nM for the second.

With Ac-WVEHRLKGLLSRSGGVVRKNFVPTDVGPFAF-NH2 (lactam 3-7; also: PEG-conjugated, in most cases at Lys25) [PEG-peptide of SEQ ID NO 891] the “PEG-peptide IC50” value was 3.71 nM.
